Experimental data as given in patent US5670340.

How the values were obtained:
[1] = biological target: β-gal97S4DhCNP-22R5-2 fusion protein (Escherichia coli; human) [β-galactosidase: P00722]
[2] = biological target: β-gal97S4DhCNP-22R5-3 fusion protein (Escherichia coli; human) [β-galactosidase: P00722]
[3] = biological target: β-gal97S4DhCNP-22R3-2 fusion protein (Escherichia coli; human) [β-galactosidase: P00722]
[4] = biological target: fusion protein encoded by pG97S4DhCT(G)R5 (β-gal97S4D - linker R5 - hCT(G)) (Escherichia coli; human) [β-galactosidase: P00722]
[5] = biological target: fusion protein encoded by pG97S4DhCT(G)R4 (β-gal97S4D - linker R4 - hCT(G)) (Escherichia coli; human) [β-galactosidase: P00722]

**Q.** How did the release efficiency of human CNP-22 (HPLC) [1] turn out when “V8 protease (from UniProt P0C1U8) (enzyme)” was run?
**A.** Its release efficiency of human CNP-22 (HPLC) is 95%.

**Q.** What about the release efficiency of human CNP-22 (HPLC) [2] of the same substance?
**A.** Its release efficiency of human CNP-22 (HPLC) is 92%.

**Q.** And the release efficiency of human CNP-22 (HPLC) [3]?
**A.** Its release efficiency of human CNP-22 (HPLC) is 99%.

**Q.** And the cleavage efficiency (hCT(G) released, HPLC) [4]?
**A.** Its cleavage efficiency (hCT(G) released, HPLC) is 7%.

**Q.** What about the cleavage efficiency (hCT(G) released, HPLC) [5] of the same substance?
**A.** The cleavage efficiency (hCT(G) released, HPLC) was 97%.
